Here are results for 53 substances from the supplement of paper PMC12042874.

± gives the uncertainty stated by the source.

This data set is described as follows: amyloid nucleation score (Sup35N fusion, yeast selection) (log enrichment); library NNK3; higher = more nucleation; inactive = no reads after selection. The method, boiled down: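 Peptides of 20 random codons, each fused to Sup35N, were expressed in psi-negative yeast. Cells were induced with 100 μM copper sulfate for 24 hours and grown 7 days at 30°C on medium lacking adenine and uracil, and plasmid inserts before and after selection were Illumina-sequenced. Nucleation scores are DiMSum log enrichments of output over input reads, centred on the mode score of non-aggregating sequences, and sequences under 100 input reads were excluded.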
Consider STSVVELVNLVDDLRLNLSR, for which the amyloid nucleation score result was “inactive”.

As to STTVLQQSLLKNKNLSWDAS, the amyloid nucleation score entry is “inactive”.

STVRVWHCLFFFLIGVHNCC: the amyloid nucleation score result is “inactive”.

With SVALYVPLQSYSQQFLEVAT, the amyloid nucleation score entry was “inactive”.

Consider SVAVRWKAYVMVLSEHSPRG, for which the amyloid nucleation score result was “inactive”.

The substance SVDGDLAEDNMLMVSFSIGK returned an amyloid nucleation score of 0.128 ± 0.54.

With SVDYDMARSVGCPFWSPKRV, the amyloid nucleation score entry is “inactive”.

As for SVERFIMPC, the amyloid nucleation score entry was “inactive”.

On to SVGEKGN, for which the amyloid nucleation score result was “inactive”.

On to SVGMFSVESLVLVKLRLWNL, for which the amyloid nucleation score result is “inactive”.

As for SVGRQSLYDL, the amyloid nucleation score is 0.285 ± 0.24.

Take SVHPGTRG: the amyloid nucleation score result was “inactive”.

On to SVIARVVRPMLRCKVSSMSM, for which the amyloid nucleation score result is “inactive”.

For the substance SVILNLMRRWPRKHEVKDAC, the amyloid nucleation score entry was “inactive”.

On to SVIMFINRIPGSNPL, for which the amyloid nucleation score entry is “inactive”.

In the case of SVKLLSVTSCDGGRAWWQGG, the amyloid nucleation score result is “inactive”.

Regarding SVNCHHLPNLHCWKYTKVEY, the amyloid nucleation score result was “inactive”.

On to SVNHKFVSDCIFGRATMEVR, for which the amyloid nucleation score is -0.263 ± 0.9.

With SVNPAKHVMCKRAPGCGKLH, the amyloid nucleation score entry is “inactive”.

In the case of SVNTLLALRV, the amyloid nucleation score result was “inactive”.

With SVPMVLFRASLVMYGLMLSQ, the amyloid nucleation score was 0.835 ± 0.12.

As to SVRGITQLSSTLHVRLVITS, the amyloid nucleation score result was “inactive”.

For the substance SVRRQHPFN, the amyloid nucleation score result was “inactive”.

In the case of SVSASRSEVTRE, the amyloid nucleation score is -0.146 ± 0.64.

For the substance SVSTGVKIACTPTIVDRQLG, the amyloid nucleation score result was “inactive”.

SVTFSHVRTSRIRCGIMVYP: the amyloid nucleation score entry is “inactive”.

For the substance SVTFTSSVLYEGSKVSAFLL, the amyloid nucleation score entry is “inactive”.

On to SVTLLFLKLYIR, for which the amyloid nucleation score entry was “inactive”.

Regarding SVYCSCISFGPTSKILVIMD, the amyloid nucleation score turned out to be 2.34 ± 0.088.

As for SVYCYEAS, the amyloid nucleation score entry was “inactive”.

SVYLT: the amyloid nucleation score result was “inactive”.

For SVYLTHSLFLRQLVGYLVHL, the amyloid nucleation score result is “inactive”.

Take SVYRSRSHRVFWEFLSGAT: the amyloid nucleation score entry is “inactive”.

The substance SVYSITSCMHGVAQSEVMFD showed an amyloid nucleation score of 1.1 ± 0.16.

In the case of SWCLERHGTRWSEFNYGPSS, the amyloid nucleation score entry is “inactive”.

SWITHSIGSDTATGYETFFN: the amyloid nucleation score result was “inactive”.

Take SWLCPFNGA: the amyloid nucleation score result was “inactive”.

Turning to SWLFHRYFVGSYCVLMDMRV, the amyloid nucleation score entry is “inactive”.

As to SWQMWYWLLVKSMPCMLHHF, the amyloid nucleation score result was “inactive”.

SWRASVYFITWDW: the amyloid nucleation score result is “inactive”.

Consider SWSANSCFVRIEKISLHNVG, for which the amyloid nucleation score entry is “inactive”.

As for SWTFQHIWVRHSRSPCKAGR, the amyloid nucleation score result is “inactive”.

With SWTFRTLSKCVYYSFCREMD, the amyloid nucleation score result is “inactive”.

With SWVYGSSDPSRVSSCLVGVL, the amyloid nucleation score entry is “inactive”.

SWYESKFVAVRWWIGDPLRG: the amyloid nucleation score is 0.703 ± 0.26.

As for SYAQGH, the amyloid nucleation score stood at 0.901 ± 0.18.

As to SYEHFRWLYHVFKVARFFFL, the amyloid nucleation score result is “inactive”.

Take SYFTVHHSCLGHTTQHVMLS: the amyloid nucleation score entry was “inactive”.

SYGNCSSMHGPVKMLRICHQ: the amyloid nucleation score result is “inactive”.

Take SYLNRPWD: the amyloid nucleation score entry was “inactive”.

In the case of SYNGYRSGLFGYGSTVSFIS, the amyloid nucleation score result is “inactive”.

As for SYRKEFSVPMATGDDSTPQH, the amyloid nucleation score result is “inactive”.

Regarding SYRRIGHMRTKLGQVVR, the amyloid nucleation score entry was “inactive”.
